The values below come from US20210186964.

This series concerns the target Ub-AMC (ubiquitin-AMC), P0CG47.

Chain of Ub-AMC (ubiquitin-AMC), P0CG47 (P0CG47 whole entry, looked up): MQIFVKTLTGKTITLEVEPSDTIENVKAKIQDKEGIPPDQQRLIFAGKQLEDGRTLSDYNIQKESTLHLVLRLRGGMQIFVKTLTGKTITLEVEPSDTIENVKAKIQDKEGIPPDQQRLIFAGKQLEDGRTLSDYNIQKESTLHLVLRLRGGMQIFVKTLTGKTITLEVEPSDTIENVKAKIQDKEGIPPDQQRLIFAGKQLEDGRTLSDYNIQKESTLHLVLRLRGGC

B1: USP1/UAF1 complex (WT-USP1/UAF1) (protein)
chain 1: MPGVIPSESNGLSRGSPSKKNRLSLKFFQKKETKRALDFTDSQENEEKASEYRASEIDQVVPAAQSSPINCEKRENLLPFVGLNNLGNTCYLNSILQVLYFCPGFKSGVKHLFNIISRKKEALKDEANQKDKGNCKEDSLASYELICSLQSLIISVEQLQASFLLNPEKYTDELATQPRRLLNTLRELNPMYEGYLQHDAQEVLQCILGNIQETCQLLKKEEVKNVAELPTKVEEIPHPKEEMNGINSIEMDSMRHSEDFKEKLPKGNGKRKSDTEFGNMKKKVKLSKEHQSLEENQRQTRSKRKATSDTLESPPKIIPKYISENESPRPSQKKSRVKINWLKSATKQPSILSKFCSLGKITTNQGVKGQSKENECDPEEDLGKCESDNTTNGCGLESPGNTVTPVNVNEVKPINKGEEQIGFELVEKLFQGQLVLRTRCLECESLTERREDFQDISVPVQEDELSKVEESSEISPEPKTEMKTLRWAISQFASVERIVGEDKYFCENCHHYTEAERSLLFDKMPEVITIHLKCFAASGLEFDCYGGGLSKINTPLLTPLKLSLEEWSTKPTNDSYGLFAVVMHSGITISSGHYTASVKVTDLNSLELDKGNFVVDQMCEIGKPEPLNEEEARGVVENYNDEEVSIRVGGNTQPSKVLNKKNVEAIGLLGGQKSKADYELYNKASNPDKVASTAFAENRNSETSDTTGTHESDRNKESSDQTGINISGFENKISYVVQSLKEYEGKWLLFDDSEVKVTEEKDFLNSLSPS
chain 2: not shown
On to B1, for which the “Km (Ub-AMC deubiquitination assay, USP1/UAF1 complex alone, no DNA)” value is given as “decreasing the Km from 0.79 µM to 0.33 µM” and the “Km (Ub-AMC deubiquitination assay, USP1/UAF1 complex with fork DNA)” value is recorded as “decreasing the Km from 0.79 µM to 0.33 µM”.
